Experiments:
[1] = target: MUC5ac mucin (PAM4 antigen) from CaPan1 human pancreatic carcinoma (human) (UniProt P98088); experiment: sandwich EIA, hPAM4 capture of antigen from CPM1, MAb probe at 10 µg/mL (FIG. 26)
[2] = target: MUC5ac mucin (PAM4 antigen) from CaPan1 human pancreatic carcinoma (human) (UniProt P98088); experiment: inhibition EIA on CPM1-coated plates; competitor hPAM4 at […]
[3] = target: IMP-288 DOTA-di-HSG hapten-peptide; experiment: 111In-IMP-288 with TF10, size exclusion chromatography (not shown)
[4] = target: MUC5ac mucin (PAM4 antigen) from CaPan1 human pancreatic carcinoma (human) (UniProt P98088); experiment: ELISA on target mucin antigen (FIG. 9)
[5] = target: MUC5ac mucin (PAM4 antigen) from CaPan1 human pancreatic carcinoma (human) (UniProt P98088); experiment: size exclusion chromatography of TF10/111In-IMP-288 with excess mucin
[6] = target: MUC5ac mucin (PAM4 antigen) from CaPan1 human pancreatic carcinoma (human) (UniProt P98088); experiment: radiolabeled TF10 with MUC5ac, size exclusion chromatography (not shown)

A Kd [1] of 14.3 µg/mL and an ICmax (maximal % inhibition) [2] of 25.5% were found for 45M1 anti-MUC5ac MAb (antibody) in this work.

A percent of peptide bound [3] of 90%, an EC50 [4] of 1.42 nM and a percent of TF10-bound 111In-IMP-288 shifted by mucin [5] of 92% were found for “TF10 bispecific ([hPAM4]2 x h679) DNL construct (bispecific antibody)” in this work. For the same substance, the immunoreactive fraction bound [6] was 87%.

— patent US20140227179A1
